Laboratory results from patent US20230090771A1 (REGENTS OF THE UNIVERSITY OF MINNESOTA, published 2023).
Numbering of substitutions follows the chain as printed. In names and notes the source's numbering stands.

T1: his6-SonA (Shewanella oneidensis), expressed alone as substrate for kinetics
T1 chain: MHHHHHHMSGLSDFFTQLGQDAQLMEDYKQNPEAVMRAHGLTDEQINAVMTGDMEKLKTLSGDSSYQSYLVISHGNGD

T2: his6-SonA, split borosin precursor SonA (Shewanella oneidensis) with N-terminal hexa-histidine tag, co-expressed with SonM
T2 chain: T1 chain

T3: his6-SonA, split borosin precursor SonA (Shewanella oneidensis) with N-terminal hexa-histidine tag, … (Shewanella oneidensis, alpha-N-methylations on L63 and I65 (the vast majority purified in the 2-alpha-N-methylated state))
T3 construct: This complex was used for crystallisation; also called WP_011071666
T3 chain: T1 chain

B1: his6-SonM wild type (Shewanella oneidensis), expressed alone for kinetics (protein)
chain: MHHHHHHSSMGSLVCVGTGLQLAGQISVLSRSYIEHADIVFSLLPDGFSQRWLTKLNPNVINLQQFYAQNGEVKNRRDTYEQMVNAILDAVRAGKKTVCALYGHPGVFACVSHMAITRAKAEGFSAKMEPGISAEACLWADLGIDPGNSGHQSFEASQFMFFNHVPDPTTHLLLWQIAIAGEHTLTQFHTSSDRLQILVEQLNQWYPLDHEVVIYEAANLPIQAPRIERLPLANLPQAHLMPISTLLIPPAKKLEYNYAILAKLGIGPEDLG
B2: SonM mutant Y71F (protein)
chain: B1 chain with Y80F
B3: SonM mutant R67K (protein)
chain: B1 chain with R76K
B4: SonM mutant Y93F (protein)
chain: B1 chain with Y102F
B5: SonM mutant Y58F (protein)
chain: B1 chain with Y67F
B6: split borosin alpha-N-methyltransferase SonM (Shewanella oneidensis), untagged, co-expressed with his6-SonA (enzyme)
chain: MGSLVCVGTGLQLAGQISVLSRSYIEHADIVFSLLPDGFSQRWLTKLNPNVINLQQFYAQNGEVKNRRDTYEQMVNAILDAVRAGKKTVCALYGHPGVFACVSHMAITRAKAEGFSAKMEPGISAEACLWADLGIDPGNSGHQSFEASQFMFFNHVPDPTTHLLLWQIAIAGEHTLTQFHTSSDRLQILVEQLNQWYPLDHEVVIYEAANLPIQAPRIERLPLANLPQAHLMPISTLLIPPAKKLEYNYAILAKLGIGPEDLG
notes: also called WP_011071665

Tests used:
[1] = biological target: T1, his6-SonA (Shewanella oneidensis), …
[2] = biological target: T2, his6-SonA, split borosin precursor SonA …
[3] = biological target: T3, his6-SonA, split borosin precursor SonA …; experiment: co-purification of untagged SonM with his6-SonA by nickel affinity and size exclusion chromatography, SDS-PAGE

Row | binding result [3] | Binder | substrate turnover (coupled-enzyme Michaelis-Menten kinetics) [1] | MS1 alpha-N-methylation profile of SonA co-purified with SonM [2]
1 |  | B1 | SonM wild type (WT) and several active-site mutants reveal multiple SonA substrate turnover | 
2 |  | B2 | SonM wild type (WT) and several active-site mutants reveal multiple SonA substrate turnover | 
3 |  | B3 | SonM wild type (WT) and several active-site mutants reveal multiple SonA substrate turnover | 
4 |  | B4 | SonM wild type (WT) and several active-site mutants reveal multiple SonA substrate turnover | 
5 |  | B5 | SonM wild type (WT) and several active-site mutants reveal multiple SonA substrate turnover | 
6 | binds | B6 |  | the vast majority of SonA is purified as the 2-alpha-N-methylated state
